Data from article doi:10.1101/305292.

Target: GFP-tagged epidermal growth factor receptor (EGFR-GFP) (human) (UniProt P00533)
Assay: dual-colour single-molecule TIRF colocalisation with step-wise photobleaching

“tetramethylrhodamine-labelled epidermal growth factor (EGF-TMR) (ligand)” was tested, and the percent of EGFR foci colocalised with EGF, across 60 min was 40% and the percent of all EGFR molecules in foci colocalised with EGF was 64%.
